Literature values as cited in US7718413B2, “Glycosylation variants of BACE” (Elan Pharmaceuticals, Inc., priority 2003, dated 2010).
Non-standard residues stand in square brackets, D forms with d. No end group written: not given here. Sta = CC(C)C[C@H](N)[C@@H](O)CC(=O)O

Target: β-secretase (Homo sapiens, UniProt P56817)
Details: previous studies

Sequence of β-secretase (P56817 46-501): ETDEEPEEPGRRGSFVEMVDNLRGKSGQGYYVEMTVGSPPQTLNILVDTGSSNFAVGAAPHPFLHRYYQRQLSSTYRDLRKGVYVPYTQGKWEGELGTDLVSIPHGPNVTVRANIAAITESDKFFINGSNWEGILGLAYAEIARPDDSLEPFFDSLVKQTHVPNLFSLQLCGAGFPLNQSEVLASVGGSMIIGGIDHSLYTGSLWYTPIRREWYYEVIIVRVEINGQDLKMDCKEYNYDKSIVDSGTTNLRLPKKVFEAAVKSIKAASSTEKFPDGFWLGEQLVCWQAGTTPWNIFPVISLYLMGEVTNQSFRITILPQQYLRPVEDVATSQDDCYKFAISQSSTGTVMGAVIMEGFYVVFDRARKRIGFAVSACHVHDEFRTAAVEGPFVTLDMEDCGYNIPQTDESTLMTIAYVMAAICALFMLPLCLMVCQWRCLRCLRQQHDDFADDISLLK

Question: With “KTEEISEVN[sta]VAEF (KTEEISEVN[Sta]VAEF) [P10-P4′staD→V]” as the substance, how does the “inhibitor of the enzyme (potency in words)” value read?
Answer: reasonably potent inhibitor
